Eleven molecules from US20090028790A1 (INSTITUT DE CARDIOLOGIE DE MONTREAL, published 2009) can be followed below.

Positions of bridges follow the written chain, without caps; N, C: chain ends. No end group written: not given here.

Test [1] addresses adrenomedullin receptors in the lungs of dogs (dog). The test can be described thus: cell-based or functional assay.
Test [2] has the same target. The test can be described thus: competition: displacement of iodine-labelled hAM from dog lungs.
In test [3] the target is T1, adrenomedullin receptors in the lungs of dogs (dog, UniProt A0A8I3NWR4 23-462; A0A8I3MWA8 233-365).
T1 construct: also called AM1 (CRLR+RAMP2) receptor
T1 sequence (chain, as listed by the source, chain 1 of 2): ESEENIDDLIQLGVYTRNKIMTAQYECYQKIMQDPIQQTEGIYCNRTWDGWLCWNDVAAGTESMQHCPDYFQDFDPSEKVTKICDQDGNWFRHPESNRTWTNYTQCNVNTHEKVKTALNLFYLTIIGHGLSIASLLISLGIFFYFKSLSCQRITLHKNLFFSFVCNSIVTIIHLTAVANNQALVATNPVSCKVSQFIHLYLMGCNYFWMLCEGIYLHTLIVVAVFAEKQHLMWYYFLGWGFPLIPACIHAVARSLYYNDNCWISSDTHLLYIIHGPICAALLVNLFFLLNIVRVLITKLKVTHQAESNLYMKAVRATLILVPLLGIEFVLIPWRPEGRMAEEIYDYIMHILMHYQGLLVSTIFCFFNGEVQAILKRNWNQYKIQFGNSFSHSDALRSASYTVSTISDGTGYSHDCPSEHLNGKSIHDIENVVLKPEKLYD
T1 sequence (chain, as listed by the source, chain 2 of 2): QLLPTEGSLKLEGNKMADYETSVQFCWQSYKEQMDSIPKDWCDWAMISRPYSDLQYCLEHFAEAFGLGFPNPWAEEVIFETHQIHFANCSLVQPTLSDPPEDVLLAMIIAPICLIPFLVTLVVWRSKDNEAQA
Described as above.

Sequence of adrenomedullin receptors in the lungs of dogs (dog) (chain, as listed by the source, chain 1 of 2): as the sequence (chain, as listed by the source, chain 1 of 2) above
Sequence of adrenomedullin receptors in the lungs of dogs (dog) (chain, as listed by the source, chain 2 of 2): as the sequence (chain, as listed by the source, chain 2 of 2) above

As to “125I-rAM(1-50) (from UniProt P43145 94-143) (peptide)”, in test [1], the mean single-pass pulmonary extraction of 125I-rAM(1-50), dogs in vivo, baseline amounted to 36.4% and the mean tracer 125I-rAM(1-50) extraction during a single pulmonary transit time, dog in vivo, one typical experiment, control is 30%.
In test [2], “hCGRP (from UniProt P06881 83-119) (peptide)” registered an IC50 of 440 nM.
“unlabelled rAM(1-50) (from UniProt P43145 94-143) (peptide)”: in test [1], the mean extraction of 125I-rAM(1-50) in the same dog after injection of unlabelled rAM(1-50) was 12% and the mean single-pass pulmonary extraction of 125I-rAM(1-50) after administration of unlabelled rAM(1-50) (100 nmol i.v.) worked out at 21.9%.
In test [1], “CGRP (Phoenix Pharmaceuticals) (peptide)” came in with a single-pass pulmonary extraction of 125I-rAM(1-50) after administration of CGRP (100 nmol i.v.) of 40.6% and a single-pass pulmonary extraction of 125I-rAM(1-50), control before CGRP of 44.6%.

B1: linear human adrenomedullin hAM(1-52) (peptide)
peptide: YRQSMNNFQGLRSFGCRFGTCTVQKLAHQIYQFTDKDKDNVAPRSKISPQGY-NH2
modifications: cysteine pairing not given here
notes: also called hAM linear; linear hAM
Consider B1, for which the IC50 in test [3] came to 7.1 nM.

B2: N-terminal acetylated human adrenomedullin (peptide)
peptide: Ac-YRQSMNNFQGLRSFGCRFGTCTVQKLAHQIYQFTDKDKDNVAPRSKISPQGY-NH2
modifications: ends and bridges not checked
notes: also called N-Ac hAM; N-terminal acetylated AM
As for B2, in test [3], the IC50 worked out at 0.041 nM. This IC50 is about 170-fold lower than that of the molecule before.

B3: hAM(13-52) (peptide)
peptide: SFGCRFGTCTVQKLAHQIYQFTDKDKDNVAPRSKISPQGY-NH2
modifications: ends and bridges not checked
On to B3, for which the IC50 in test [3] turned out to be 34 nM.

B4: hAM2(16-47) (peptide, UniProt Q7Z4H4 116-147, looked up)
peptide: QVQNLSHRLWQLMGPAGRQDSAPVDPSSPHSY
modifications: ends and bridges not checked
notes: range 16-47; Numbering 16-47 is that of the mature AM2 peptide, not of the precursor entry
The molecule B4 registered an IC50 in test [3] of 980 nM.

B5: hAM(22-52) (peptide)
peptide: TVQKLAHQIYQFTDKDKDNVAPRSKISPQGY-NH2
notes: also called C-terminal AM fragment
The molecule B5 gave an IC50 in test [3] of 810 nM.

B6: human adrenomedullin hAM(1-52), cyclic (peptide)
peptide: YRQSMNNFQGLRSFGCRFGTCTVQKLAHQIYQFTDKDKDNVAPRSKISPQGY-NH2
modifications: disulfide 16-21
notes: also called hAM (cyclic); cyclic hAM
Molecule B6 returned an IC50 in test [3] of 0.055 nM. Compared with the last molecule, the IC50 is about 15000-fold lower.

B7: hAM2 (peptide, UniProt Q7Z4H4 101-147, looked up)
peptide: TQAQLLRVGCVLGTCQVQNLSHRLWQLMGPAGRQDSAPVDPSSPHSY
Consider B7, for which, in test [3], the IC50 came out at 480 nM.

A word on the IC50: it is the point on the concentration scale where inhibition reaches its midpoint.
